In patent publication US20250186620A1 (DUKE UNIVERSITY, published 2025):

T1: Wild-type Connexin35 (Cx35) of Morone americana (Morone americana)
T1 construct: Connexin hemichannel (hexamer) expressed in HEK 293FT cells; In C. elegans it was expressed as GFP or mCherry fusion; also called Cx35WT; not shown: C-terminal fluorescent protein fusion (mEmerald or RFP670 in FETCH)
T1 chain: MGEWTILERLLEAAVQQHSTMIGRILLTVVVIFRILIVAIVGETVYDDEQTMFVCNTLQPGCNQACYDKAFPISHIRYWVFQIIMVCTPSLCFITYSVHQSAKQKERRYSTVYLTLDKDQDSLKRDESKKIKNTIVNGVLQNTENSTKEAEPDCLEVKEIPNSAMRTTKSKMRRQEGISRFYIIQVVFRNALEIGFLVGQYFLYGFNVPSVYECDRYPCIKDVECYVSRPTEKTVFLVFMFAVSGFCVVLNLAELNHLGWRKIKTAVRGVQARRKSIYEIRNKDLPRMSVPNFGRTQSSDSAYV

T2: human connexin36 (Cx36) (human, UniProt Q9UKL4 1-321)
T2 construct: whole, on cells; Hemichannel expressed in HEK 293FT cells for FETCH; also called GJD2; not shown: C-terminal fluorescent protein fusion (mEmerald or RFP670 in FETCH)
T2 sequence (looked up): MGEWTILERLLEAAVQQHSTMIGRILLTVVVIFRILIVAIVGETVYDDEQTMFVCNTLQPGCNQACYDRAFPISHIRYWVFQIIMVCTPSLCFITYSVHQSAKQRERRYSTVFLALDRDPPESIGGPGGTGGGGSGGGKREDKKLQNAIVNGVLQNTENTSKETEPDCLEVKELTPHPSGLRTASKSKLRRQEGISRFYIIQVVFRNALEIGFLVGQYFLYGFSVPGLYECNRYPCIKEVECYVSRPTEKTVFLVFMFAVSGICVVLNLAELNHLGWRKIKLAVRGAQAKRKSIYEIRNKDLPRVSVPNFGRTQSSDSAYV

B1: Cx35K221E (designer connexin Cx35M1, Morone americana Cx35 with K221E) (other)
chain: MGEWTILERLLEAAVQQHSTMIGRILLTVVVIFRILIVAIVGETVYDDEQTMFVCNTLQPGCNQACYDKAFPISHIRYWVFQIIMVCTPSLCFITYSVHQSAKQKERRYSTVYLTLDKDQDSLKRDESKKIKNTIVNGVLQNTENSTKEAEPDCLEVKEIPNSAMRTTKSKMRRQEGISRFYIIQVVFRNALEIGFLVGQYFLYGFNVPSVYECDRYPCIEDVECYVSRPTEKTVFLVFMFAVSGFCVVLNLAELNHLGWRKIKTAVRGVQARRKSIYEIRNKDLPRMSVPNFGRTQSSDSAYV
notes: Rationally designed hemichannel; In C. elegans expressed as GFP or mCherry fusion; in mice from AAV9 as mApple or mEmerald fusion; not shown: C-terminal fluorescent protein fusion (mEmerald or RFP670 in FETCH)

Key:
[1] = target: Cx34.7E214K/E223K/E225K (Morone americana Cx34.7 triple mutant) (Morone americana); assay: FETCH (flow cytometry, % dual-labelled HEK 293FT cells), homotypic
[2] = target: T1, Wild-type Connexin35 (Cx35) of Morone …; assay: heterotypic FETCH
Method: (§1) Complete FETCH methodology is outlined in Ransey et. al. 2021 (Ransey E, et al. (2021) BioRxiv). Briefly, replica multi-well plates with HEK 293FT cells were transfected with either of the two connexin proteins being evaluated for docking. Following a transfection incubation period, experimental counterparts were combined, replated, and further incubated for about 20 hr to about 24 hrs, allowing cells to make contacts and potentially generate connexosomes. Co-plated samples were trypsinized, fixed in suspension and analyzed via flow cytometry. Flow cytometry data was processed with two selection gates prior to their fluorescence evaluation. First, putative HEK cells were identified by evaluating sample forward vs. side scatter area. Next, single cells were identified as the putative cells that maintained a linear correlation of forward scatter height to forward scatter area. Finally, the dual fluorescence (mEmerald vs. RFP670) profiles of each sample was generated, and the FETCH score was defined as the proportion of dual-labeled fluorescent cells that develop in a co-plated sample.

human connexin36 (Cx36) [3] = target: T2, human connexin36 (Cx36); assay: FETCH (flow cytometry, % dual-labelled HEK 293FT cells), heterotypic
Method: as §1

human connexin36 (Cx36) [4] = target: T2, human connexin36 (Cx36); assay: heterotypic FETCH
Method: as §1

human connexin43 (Cx43) [5] = target: T3, human connexin43 (Cx43) (human, UniProt P17302 2-382); assay: heterotypic FETCH
T3 construct: whole, on cells; Hemichannel expressed in HEK 293FT cells for FETCH; also called GJA1; not shown: C-terminal fluorescent protein fusion (mEmerald or RFP670 in FETCH)
T3 sequence (P17302 2-382): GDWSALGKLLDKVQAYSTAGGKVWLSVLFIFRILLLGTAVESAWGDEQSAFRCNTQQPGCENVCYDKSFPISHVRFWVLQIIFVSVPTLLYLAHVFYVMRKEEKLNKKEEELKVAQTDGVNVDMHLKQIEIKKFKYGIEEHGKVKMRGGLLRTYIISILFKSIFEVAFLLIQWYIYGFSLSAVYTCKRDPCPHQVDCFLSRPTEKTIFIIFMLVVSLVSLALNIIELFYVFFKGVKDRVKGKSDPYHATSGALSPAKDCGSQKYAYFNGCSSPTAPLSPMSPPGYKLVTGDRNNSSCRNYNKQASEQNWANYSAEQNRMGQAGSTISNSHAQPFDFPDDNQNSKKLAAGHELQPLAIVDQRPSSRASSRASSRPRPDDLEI
Method: as §1

[6] = target: B1; assay: FETCH (flow cytometry, % dual-labelled HEK 293FT cells), heterotypic
Method: as §1

human connexin43 (Cx43) [7] = target: T3, human connexin43 (Cx43); assay: as above
Method: as §1

homotypic FETCH = target: the molecule itself; assay: homotypic FETCH
Method: as §1

[8] = target: the molecule itself; assay: FETCH (flow cytometry, % dual-labelled HEK 293FT cells), homotypic
Method: as §1

homotypic FETCH screen = target: the molecule itself; assay: homotypic FETCH screen
Method: as §1
For screening analysis, five FETCH replicates were obtained for each condition (mutation). These scores were benchmarked against scores for Cx36 and Cx45 (FETCH=1.2±0.1%, n=54 replicates). To quantitatively determine whether a connexin pair docked, FETCH scores were determined for the dual fluorescence of cells under conditions where docking was not anticipated. These conditions included pairs of connexins previously established to not show docking: (i) Cx36 and Cx45 (FETCH=0.7±0.0%, n=59 replicates), (ii) homotypic Cx23 (FETCH=0.9±0.4%, n=6 previously collected replicates (Ransey E, et al. (2021) BioRxiv), and (iii) Cx36 and Cx43 (FETCH=1.2±0.2%, n=10 previously collected replicates (Ransey E, et al. (2021) BioRxiv), and under conditions for which cells were transfected with cytoplasmic fluorophores rather than tagged connexins (FETCH=4.4±0.6%, n=17 previously collected replicates (Ransey E, et al. (2021) BioRxiv).

human connexin43 (Cx43) [9] = target: T3, human connexin43 (Cx43); assay: FETCH (flow cytometry, % dual-labelled HEK 293FT cells), heterotypic, n=6
Method: as §1

[10] = target: Cx34.7E214K/E223K/E225K (Morone americana Cx34.7 triple mutant) (Morone americana); assay: FETCH (flow cytometry, % dual-labelled HEK 293FT cells), heterotypic

FETCH score [1] [%] | binding result [2] | FETCH score (human connexin36 (Cx36) [3]) [%] | binding result (human connexin36 (Cx36) [4]) | binding result (human connexin43 (Cx43) [5]) | FETCH score [6] [%] | FETCH score (human connexin43 (Cx43) [7]) [%] | FETCH score (human connexin43 (Cx43) [9]) [%] | FETCH score [10] [%] | Binder | binding result (homotypic FETCH) | FETCH score [8] [%] | binding result (homotypic FETCH screen)
0.2 | – | – | – | – | – | – | – | – | Cx34.7E214K/E223K/E225K (Morone americana Cx34.7 triple mutant) (protein, not shown: large carriers) MGEWTILERLLEAAVQQHSTMIGRILLTVVVIFRILIVAIVGETVYEDEQAMFICNTLQPGCNQACYDKAFPISHIRYWVFQIILVCTPSLCFITYSVHQSAKQKDRRYSFLYPIMERDYGGRDGARKLRNINGILVQHGGDGGGGKEEPDCLEVKEIPNAPRGLTHGKSSKVRRQEGISRFYIIQVVFRNALEIGFLAGQYFLYGFSVPGIFKCDRYPCLKKVKCYVSRPTEKTVFLVFMFAVSGICVVLNLAELNHLGWRKIKAAIRGVQARRKSICEIRKKDMAHLSQPPNLGRTQSSESAYV | – | – | –
– | binds | 11.9 | – | – | – | – | – | – | Wild-type Connexin34.7 (Cx34.7) of Morone americana (other, In C. elegans it was expressed as GFP or mCherry fusion; also called Cx34.7WT; not shown: C-terminal fluorescent protein fusion (mEmerald or RFP670 in FETCH)) MGEWTILERLLEAAVQQHSTMIGRILLTVVVIFRILIVAIVGETVYEDEQAMFICNTLQPGCNQACYDKAFPISHIRYWVFQIILVCTPSLCFITYSVHQSAKQKDRRYSFLYPIMERDYGGRDGARKLRNINGILVQHGGDGGGGKEEPDCLEVKEIPNAPRGLTHGKSSKVRRQEGISRFYIIQVVFRNALEIGFLAGQYFLYGFSVPGIFECDRYPCLKEVECYVSRPTEKTVFLVFMFAVSGICVVLNLAELNHLGWRKIKAAIRGVQARRKSICEIRKKDMAHLSQPPNLGRTQSSESAYV | – | – | –
– | – | 1 | no binding | no binding | 35.7 | 0.9 | – | – | Cx34.7E214K/E223K (designer connexin Cx34.7M1, Morone americana Cx34.7 with E214K and E223K) (other, Rationally designed hemichannel; In C. elegans expressed as GFP or mCherry fusion; in mice from AAV9 as mEmerald or mApple fusion; not shown: C-terminal fluorescent protein fusion (mEmerald or RFP670 in FETCH)) MGEWTILERLLEAAVQQHSTMIGRILLTVVVIFRILIVAIVGETVYEDEQAMFICNTLQPGCNQACYDKAFPISHIRYWVFQIILVCTPSLCFITYSVHQSAKQKDRRYSFLYPIMERDYGGRDGARKLRNINGILVQHGGDGGGGKEEPDCLEVKEIPNAPRGLTHGKSSKVRRQEGISRFYIIQVVFRNALEIGFLAGQYFLYGFSVPGIFKCDRYPCLKKVECYVSRPTEKTVFLVFMFAVSGICVVLNLAELNHLGWRKIKAAIRGVQARRKSICEIRKKDMAHLSQPPNLGRTQSSESAYV | no binding | 1.1 | –
– | – | 0.8 | no binding | no binding | – | – | 0.5 | – | Cx35E224K (Morone americana Cx35 mutant E224K) (other, Extracellular loop mutant of the screening library; not shown: C-terminal fluorescent protein fusion (mEmerald or RFP670 in FETCH)) MGEWTILERLLEAAVQQHSTMIGRILLTVVVIFRILIVAIVGETVYDDEQTMFVCNTLQPGCNQACYDKAFPISHIRYWVFQIIMVCTPSLCFITYSVHQSAKQKERRYSTVYLTLDKDQDSLKRDESKKIKNTIVNGVLQNTENSTKEAEPDCLEVKEIPNSAMRTTKSKMRRQEGISRFYIIQVVFRNALEIGFLVGQYFLYGFNVPSVYECDRYPCIKDVKCYVSRPTEKTVFLVFMFAVSGFCVVLNLAELNHLGWRKIKTAVRGVQARRKSIYEIRNKDLPRMSVPNFGRTQSSDSAYV | – | – | no binding
– | – | 0.6 | no binding | no binding | – | – | 0.5 | – | Cx35E224R (Morone americana Cx35 mutant E224R) (other, Extracellular loop mutant of the screening library; not shown: C-terminal fluorescent protein fusion (mEmerald or RFP670 in FETCH)) MGEWTILERLLEAAVQQHSTMIGRILLTVVVIFRILIVAIVGETVYDDEQTMFVCNTLQPGCNQACYDKAFPISHIRYWVFQIIMVCTPSLCFITYSVHQSAKQKERRYSTVYLTLDKDQDSLKRDESKKIKNTIVNGVLQNTENSTKEAEPDCLEVKEIPNSAMRTTKSKMRRQEGISRFYIIQVVFRNALEIGFLVGQYFLYGFNVPSVYECDRYPCIKDVRCYVSRPTEKTVFLVFMFAVSGFCVVLNLAELNHLGWRKIKTAVRGVQARRKSIYEIRNKDLPRMSVPNFGRTQSSDSAYV | – | – | no binding
– | – | 1.5 | no binding | no binding | – | 1.7 | – | 1.2 | B1 | no binding | 1.2 | –
